In patent publication US20140079716A1 (Biogen, published 2014):
Numbering of substitutions follows the chain as printed. Where “and” joins values, the source holds several entries; their conditions need not be identical. Equal entries are not always repeated.

B1: LT102 (P1G8.2) (antibody, IgG1, V domains shown)
VH: EVKLVESGGGLVKPGGSLKLSCAVSGFTFSDYYMYWIRQTPEKRLEWVATIGDGTSYTHYPDSVQGRFTISRDYATNNLYLQMTSLRSEDTALYYCARDLGTGPFAYWGQGTLVTVSA
VL: DVLMTQTPRSLPVSLGDQASISCRSSQNIVHSNGNTYLEWYLQKPGQSPKLLIYKVSNRFSGVPDRFSGSGSGTDFTLKISRVEAEDLGVYYCFQGSHFPWTFGGGTKLEIK
notes: also called mAb LT102; LT012
B2: LT101 (P1G4.4) / LT103 (P1G9.1) (antibody, V domains shown)
VH: QVQLQQSGPELVKPGASVQISCKASGYVFSSSWMNWVKQRPGRGLEWIGRIYPGDGDTDYTGKFKGKATLTADKSSNTAYMQLSSLTSVDSAVYFCASGYFDFWGQGTPLTVSS
VL: DITMTQSPSSMYASLGERVTITCKASQDMNNYLRWFQQKPGKSPQTLIFRANRLVDGVPSRFSGSGSGQDYSLTISSLEFEDMGIYYCLQHDKFPPTFGGGTKLEIK
notes: Murine monoclonal antibody, kappa light chain; also called LT101/LT103
B3: LT105 (P2E9.7) (antibody, IgG1, V domains shown)
VH: DVQLQESGPGLVKPSQSLSLTCSVTGYSITSGYYWNWIRQFPGNKLEGMGYISYDGSNNYNPSLKNRISITRDSSKNQFFLKLNSVTAEDSGTYYCARDAYSYGMDYWGQGTSVTVSS
VL: DIVLTQSPASLAVSLGQRATISCRASESVDNYGISFMHWYQQKPGQPPKLLIYRASNLESGIPARFSGSGSRTDFTLTINPVETDDVATFYCQQSNKDPYTFGGGTKLEIK
notes: The humanized versions were tested only for solubility; also called mAb LT105
B4: 9B4 (antibody, V domains shown)
VH: QVTLKESGPGILQPSQTLSLTCSFSGFSLSTSGMGVSWIRQPSGKGLEWLAHIYWDDDKRYNPSLRSRLTISKDTSRNQVFLKITSVDTADTATYYCARREGYYGSSFDFDVWGAGTTVTVSS
VL: QIVLSQSPAILSASPGEKVTMTCRASSSVSYMIWYQQKPGSSPKPWIYATSSLASGVPTRFSGSGSGTSYSLTISRVEAADAATYYCQQWSYNPLTFGAGTKLELK
notes: Murine monoclonal antibody, kappa light chain; also called LT 9B4; LT9B4
B5: A0D9 (antibody, V domains shown)
VH: QVQLKQSGPGLVQPSQSLSITCTVSGFSLSTYGVHWVRQFPGKGLEWLGVIWRGGNTNYNAAFMSRLTISKDNSKSQVFFKMNSLQAKDTAIYYCVRNQIYDGYYDYAMDYWGQGTSVTVSS
VL: DIKMTQSPSSMYASLGERVTITCKASQDINTYLNWLQQKPGKSPKTLIYRANRLVDGVPSRFSGRGSGQDYSLTISSLEYEDVGIYYCLHYDAFPWTFGGGTKLEIK
notes: Murine monoclonal antibody, kappa light chain; also called mAb A0D9; AOD9
B6: LT107 (P5C4.1) (antibody, V domains shown)
VH: QVQLKQSGPGLVQPSQNLSITCTVSGFSLTNYGIHWIRQPPGKGLEWLGVIWSGGSTDHNAAFISRLSISKDNSKSQVFFTMNSLEVDDTAIYYCARNRAYYRYEGGMDYWGQGTSVTVSS
VL: DIKMTQSPSSMYASLGERVTITCKASQDINTYLNWFQQKPGKSPMTLIYRADRLLDGVPSRFSGSGSGQDYSLTISSLEDEDMGIYYCQQYDDFPLTFGAGTKLELK
notes: Murine monoclonal antibody, kappa light chain; also called mAb LT107
B7: LT108 (P4F2.2) (antibody, V domains shown)
VH: B6 VH with N17S, N31D, A62V, I64T, S68N, T81K, V87P, I92M
VL: B6 VL
notes: also called mAb LT108
B8: A1D5 (antibody, V domains shown)
VH: EVQLQQSGPELVKPGASVKISCKASGYSFTGYFMNWMRQSHGKSLEWIGRINPYNGDSFYNQKFKDKATLTVDKSSTTAHMELLSLTSEDSAVYYCGRGYDAMDYWGQGTSVTVSS
VL: DIQMTQTTSSLSASLGDRVTISCRASQDISNFLTWYQQKPDGTVKLLIYYTSKLHSGVPSRFSGSGSGTDYSLTISNLEPGDIATYYCQQVSKFPWTFGGGAKLEIK
notes: Murine monoclonal antibody, kappa light chain; also called mAb A1D5
B9: Murine LTBR-mIgG1 (Fc fusion, UniProt P50284 31-223, looked up)
chain: QLVPPYRIENQTCWDQDKEYYEPMHDVCCSRCPPGEFVFAVCSRSQDTVCKTCPHNSYNEHWNHLSTCQLCRPCDIVLGFEEVAPCTSDRKAECRCQPGMSCVYLDNECVHCEEERLVLCQPGTEAEVTDEIMDTDVNCVPCKPGHFQNTSSPRARCQPHTRCEIQGLVEAAPGTSYSDTICKNPPEPGAMLL
notes: also called mLTBR-mIgG1; mLTβR-mIg; not shown: murine IgG1 part
B10: monomeric LTβR (receptor, UniProt P36941 31-227, looked up)
chain: QAVPPYASENQTCRDQEKEYYEPQHRICCSRCPPGTYVSAKCSRIRDTVCATCAENSYNEHWNYLTICQLCRPCDPVMGLEEIAPCTSKRKTQCRCQPGMFCAAWALECTHCELLSDCPPGTEAELKDEVGKGNNHCVPCKAGHFQNTSSPSARCQPHTRCENQGLVEAAPGTAQSDTTCKNPLEPLPPEMSGTMLM
notes: Injected at 20 µM in the Biacore assay; also called LTbR
B11: LTβR-Ig (Fc fusion, UniProt P36941 31-227, looked up)
chain: B10 chain
modifications: biotin label in the II-23 assay (sites not given)
notes: also called LTBR-Ig; LTbR-Ig; not shown: Ig (Fc) part

The binders below were run against T1, soluble recombinant human lymphotoxin α1β2 (human, UniProt P01374 35-205, limits assumed) (assay: cell-based or functional assay).
T1 sequence 1: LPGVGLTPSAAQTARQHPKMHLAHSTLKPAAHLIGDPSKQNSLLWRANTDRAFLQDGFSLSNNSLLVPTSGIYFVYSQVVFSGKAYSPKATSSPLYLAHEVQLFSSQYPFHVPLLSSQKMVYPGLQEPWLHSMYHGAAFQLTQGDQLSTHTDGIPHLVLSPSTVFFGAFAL
T1 sequence 2: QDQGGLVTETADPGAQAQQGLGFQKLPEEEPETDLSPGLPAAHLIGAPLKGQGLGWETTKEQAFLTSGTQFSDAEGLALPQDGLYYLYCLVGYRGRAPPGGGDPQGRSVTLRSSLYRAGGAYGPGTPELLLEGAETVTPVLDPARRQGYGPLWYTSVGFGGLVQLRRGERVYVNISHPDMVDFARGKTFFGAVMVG

Binder | IC50 nM, inhibition of IL-8 release | Maximum % Inhibition of IL-8 release
B1 | 0.406 nM and 0.991 nM | 92%
B2 | 1.11 nM | 90%
B3 | 1.06 nM and 0.52 nM | 100%
B4 | 0.6 nM | 95%
B5 | 1.67 nM | 94%
B6 | 0.53 nM | 95%
B7 | 1.3 nM | –
B8 | 2.5 nM | 94%

The binders below were run against T2, human LT (human, UniProt P01374 35-205, limits assumed) (assay: reagent description; assay not stated).
T2 construct: also called human LTα1β2
T2 sequence 1: T1 sequence 1
T2 sequence 2: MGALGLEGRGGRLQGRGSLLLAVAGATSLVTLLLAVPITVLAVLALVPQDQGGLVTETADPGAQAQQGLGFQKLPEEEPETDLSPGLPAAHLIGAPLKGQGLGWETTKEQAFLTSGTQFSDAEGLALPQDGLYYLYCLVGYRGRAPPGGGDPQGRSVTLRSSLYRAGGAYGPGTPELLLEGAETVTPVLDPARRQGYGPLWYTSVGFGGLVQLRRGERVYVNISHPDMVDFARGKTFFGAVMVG

Binder | fold lower affinity than for murine LT
B9 | ~2 fold

These binders were tested against T3, LTα3 (soluble homotrimer) (UniProt P01374 35-205) (assay: ELISA on plate-coated LTα3 (1 or 5 ug/ml)).
T3 construct: Coated on ELISA plates at 1 or 5 ug/ml; also called LTa3
T3 sequence (looked up): T1 sequence 1
Method: For the LTa3 ELISA, microtiter plates were coated with LTα3 (1 or 5 ug/ml in PBS) then nonspecific binding sites were blocked with a 1% casein buffer. Samples (antibodies, receptor-Ig) were added and binding detected with HRP-conjugated anti-murine Ig antibodies. For assessment of ability of mAbs to block interaction between LTα3 and TNFR-hIg (p55), plates were coated with LTα3 and blocked as described above. Serial dilutions of antibodies were added to plate 30 minutes prior to TNFR-Ig addition. Binding of TNFR-hIg to plate-bound LTα3 was detected with an HPR conjugated anti-human Ig antibody.

Binder | binding result
B1 | no binding
B3 | no binding
B4 | no binding
B5 | no binding
B6 | no binding
B7 | no binding
B8 | no binding

The binders below were run against T4, LTα1β2 on the surface of PMA-treated II-23 cells (UniProt P01374 35-205, limits assumed) (assay: FACS, inhibition of biotin-LTβR-Ig binding to PMA-treated II-23 cells).
T4 construct: whole, on cells; also called surface LT
T4 sequence 1: T1 sequence 1
T4 sequence 2: T2 sequence 2
Method: (§1) II-23 cells were incubated with 50 ng/ml PMA for 4 hours at 37° C. 5% CO2. The cells were washed and 500,000 cells were added to each well of a 96-well plate. The antibody was diluted to the appropriate concentrations and added to the II-23 cells. After a 30 minute incubation period at 4° C., the biotin labeled LTβR-Ig is added to each well for a final concentration of 1 ug/ml. The cells are incubated at 4° C. for an additional 30 minutes, and then washed 3 times. Streptavidin-PE was diluted to 1/500 and added to each well and incubated for 1 hour at 4° C. The cells were washed once and read by FACS analysis. The mean fluorescence intensity is plotted versus antibody concentrations, and an IC50 is determined from a 4-parameter curve fit of the data.

Binder | potency in an II-23 assay (% blockade)
B1 | > 90%
B3 | > 90%
B4 | > 90%
B5 | > 90%
B8 | > 90%

These binders were tested against T5, Soluble Flag-tagged LTα1β2 (UniProt P01374 35-205, limits assumed) (assay: SPR (Biacore 3000), Flag-LTα1β2 captured on anti-Flag M2; LTβR binding site 1).
T5 construct: Biacore ligand captured on the anti-Flag antibody M2; the whole LTβ entry is named here; also called Ligand
T5 sequence 1: T1 sequence 1
T5 sequence 2: T1 sequence 2

Binder | Kd
B10 | ~50 nM

Each binder was assayed against T5, Soluble Flag-tagged LTα1β2 (assay: SPR (Biacore 3000), Flag-LTα1β2 captured on anti-Flag M2; LTβR binding site 2).

Binder | Kd
B10 | ~1500 nM

Each binder was assayed against T4, LTα1β2 on the surface of PMA-treated … (assay: FACS, inhibition of biotin-LTβR-Ig (1 ug/ml) binding to PMA-treated II-23 cells).
Method: as §1

Binder | Maximum % Inhibition
B1 | 98%
B2 | 77%
B3 | 97%
B4 | 99%
B5 | 92%
B6 | 80%
B8 | 92%

Each binder was assayed against T4, LTα1β2 on the surface of PMA-treated … (assay: competition FACS (II-23 assay, as in FIG. 4): LT-expressing cells, varied antibody, labelled LTβR-Ig; MFI of bound LTβR-Ig).
Method: as §1

Binder | IC50 (read off the curve)
B1 | ~0.4 µg/mL
B2 | ~0.04 µg/mL
B3 | ~0.06 µg/mL
B5 | ~0.2 µg/mL
B6 | ~0.03 µg/mL
B8 | ~0.6 µg/mL

The binders below were run against T4, LTα1β2 on the surface of PMA-treated … (assay: competition FACS (II-23 assay, as in FIG. 4): LT-expressing cells, varied competitor, labelled LTβR-Ig; MFI of bound LTβR-Ig).
Method: as §1

Binder | IC50 (read off the curve)
B11 | ~0.03 µg/mL

Each binder was assayed against T4, LTα1β2 on the surface of PMA-treated … (assay: competition FACS (II-23 assay): PMA-treated II-23 cells, varied antibody, then biotin-LTβR-Ig at 1 ug/ml, streptavidin-PE; MFI of bound LTβR-Ig).
Method: as §1

Binder | IC50 (read off the curve)
B1 | ~3 nM
B3 | ~1 nM
B4 | ~0.9 nM

The binders below were run against T4, LTα1β2 on the surface of PMA-treated … (assay: competition FACS (II-23 assay): PMA-treated II-23 cells, varied competitor, then biotin-LTβR-Ig at 1 ug/ml, streptavidin-PE; MFI of bound LTβR-Ig).
Method: as §1

Binder | IC50 (read off the curve)
B11 | ~0.8 nM
